Series [1] deals with the molecule itself. Put plainly: crystal structure; hTS 20 mg/mL in 50 mM HEPES pH 7.5, 30 mM NaCl, 20 mM beta-mercaptoethanol, with 40 mM dUMP or 2 mM FdUMP; precipitant 27-30 % PEG4000, 30 mM ammonium sulfate, 0.1 M TRIS pH 9; room temperature; space groups C2 or I2, one and half dimer in the ASU.
Series [2] deals with the molecule itself. The series can be described thus: crystal structure; EfTS 7 mg/mL in 25 mM phosphate buffer pH 6.8, 2 mM DTT, with 100 mM dUMP or 4 mM FdUMP; precipitant 2.2-2.5 M ammonium sulfate, 0.1 M HEPES pH 7.5; room temperature; space group P21, two enzyme dimers in the ASU.

B1: human thymidylate synthase (enzyme)
chain: MPVAGSELPRRPLPPAAQERDAEPRPPHGELQYLGQIQHILRCGVRKDDRTGTGTLSVFGMQARYSLRDEFPLLTTKRVFWKGVLEELLWFIKGSTNAKELSSKGVKIWDANGSRDFLDSLGFSTREEGDLGPVYGFQWRHFGAEYRDMESDYSGQGVDQLQRVIDTIKTNPDDRRIIMCAWNPRDLPLMALPPCHALCQFYVVNSELSCQLYQRSGDMGLGVPFNIASYALLTYMIAHITGLKPGDFIHTLGDAHIYLNHIEPLKIQLQREPRPFPKLRILRKVEKIDDFKAEDFQIEGYNPHPTIKMEMAV
notes: Thymidylate synthase (EC 2.1.1.45), human, wild type; expressed from pQE-80L with a not-cleavable N-terminal His6-tag (twelve tag residues); the first twenty-five N-terminal residues and the tag were not traced in the structures; also called hTS; Human TS; source: E. coli BL21(DE3), purified (HisTrap HP); not shown: His6, N-terminal, kept
Consider B1, for which, in series [1], the binding result was “binds”.

B2: Enterococcus faecalis thymidylate synthase (enzyme)
chain: MEEAYLALGKKILEEGHFKEDRTGTGTYSLFGYQMRFDLAKGFPLLTTKRVPFGLIKSELLWFLKGDTNIRYLLERNNHIWDEWAFERYVKSADYQGPDMTDFGHRVLQDPAFAEQYKEEHQKFCDAILNDAEFAEKYGELGNIYGAQWRHWETKDGSFIDQLANVIEMIKTNPDSRRLIVSAWNPEDVPSMALPPCHTMFQFYVNEGKLSCQLYQRSADVFLGVPFNIASYALLTHLIAHETGLEVGEFVHTLGDAHLYQNHVEQMQEQLSREVRSFPTLVLNPDKASVFDFDMEDIKVEGYDPHPTIKAPIAV
modifications: dUMP complex: Cys197 as S,S-(2-hydroxylethyl)thiocysteine (CME197) in subunits B and D, oxidized to sulfenic acid (S-oxycysteine, CSX197) in subunits A and C; FdUMP complex: Cys197 thiol reactive
notes: Thymidylate synthase (EC 2.1.1.45) of Enterococcus faecalis; The homodimer is asymmetric: 5-FTHF copurifies in one active site of each dimer; also called EfTS; TS; source: prepared according to an established procedure [5]; purified
For the protein B2, the binding result in series [2] is listed as “binds”.
